Data published in US11866736B2, “Protein prostheses for mitochondrial diseases or conditions” (The General Hospital Corporation, priority 2015, dated 2024).
Where a chain is given by its changes, count along the chain named. In names and notes the source's numbering stands.

B1: LbNOX: water-forming NADH oxidase endogenous to Lactobacillus brevis; tested with C-terminal FLAG tag (protein, listed as Lactobacillus brevis)
chain: KVTVVGCTHAGTFAIKQILAEHPDAEVTVYERNDVISFLSCGIALYLGGKVADPQGLFYSSPEELQKLGANVQMNHNVLAIDPDQKTVTVEDLTNHAQTTESYDKLVMTSGSWPIVPKIPGIDSDRVKLCKNWAHAQALIEDAKEAKRITVIGAGYIGAELAEAYSTTGHDVTLIDAMARVMPKYFDADFTDVIEQDYRDHGVQLALGETVESFTDSATGLTIKTDKNSYETDLAILCIGFRPNTDLLKGKVDMAPNGAIITDDYMRSSNPDIFAAGDSAAVHYNPTHQNAYIPLATNAVRQGILVGKNLVKPTVKYMGTQSSSGLALYDRTIVSTGLTLAAAKQQGLNAEQVIVEDNYRPEFMPSTEPVLMSLVFDPDTHRILGGALMSKYDVSQSANTLSVCIQNENTIDDLAMVDMLFQPNFDRPFNYLNILAQAAQAKVAQSVNA
modifications: C-terminal FLAG tag
B2: TPNOX: NADPH-specific quintuple mutant (G159A/D177A/A178R/M179S/P184R) of LbNOX (protein)
chain: B1 chain with G158A, D176A, A177R, M178S, P183R

Columns and labels:
HeLa cells = experiment: Oxygen consumption rate (OCR), XF24 extracellular flux analyzer; format: cell-based, human; settings: for increase in oxygen consumption: resistance to antimycin: 1 μM antimycin (complex III inhibitor); for increase in oxygen consumption of HeLa cells: doxycycline-inducible expression
Procedure: Oxygen consumption rates (OCR) of HeLa cells expressing 5 bacterial NOXes (untargeted and targeted to mitochondria) and Luciferase under the control of doxycycline (DOX) inducible promoter (TRE3G) were measured with the XF24 Extracellular Flux Analyzer (Seahorse Bioscience, manufactured in 2008). Cells were seeded at 30-40×10^3 cells per well in XF24 24-well cell culture microplates in 200 μl of DMEM (DMEM (US Biological, […]), 3.7 g/L NaHCO3 and 10% dialyzed FBS (Life Technologies, 26400-044) and were incubated at 37° C. in 5% CO2 incubator. Media was replaced the next day with 1 ml per well and doxycycline (final concentration -300 ng/ml, prepared in water) or water were added to the corresponding wells to induce protein expression. Twenty four hour later, media was replaced with 950 μL of the assay medium (no pyruvate DMEM (US Biological, […]), 15.9 mg/L phenol red, 10% dialyzed FBS (Life Technologies, 26400-044) and 25 mM HEPES-KOH, pH 7.4) and plates were introduced into the […] Extracellular Flux Analyzer for experimental measurements. Each measurement was performed over 4 min after a 2-min mix and a 2-min wait period. Basal measurements were collected 8 times and 4 measurements were collected after injection of oligomycin (final concentration 1 μM), followed by 4 measurements after addition of antimycin A (final concentration 1 μM) from the XF24 ports in 50 μL of the assay medium. Cells were seeded at 30-40×10^3 per well in XF24 24-well cell culture microplates in 200 μl of normal growth media (DMEM (US Biological, […]), 3.7 g/L NaHCO3 and 10% dialyzed FBS (Life Technologies, 26400-044)) and were incubated at 37° C. in 5% CO2 incubator. For all experiments the next day media was renewed with 1 ml per well and doxycycline (final concentration -300 ng/ml) or water were added. Twenty four hours later, media was changed to no pyruvate media (no pyruvate DMEM (US Biological, […]), 15.9 mg/L phenol red, 3.7 g/L NaHCO3 and 10% dialyzed FBS (Life Technologies, 26400-044)). Two hours later, media was replaced with 950 μL of the assay medium (no pyruvate DMEM (US Biological, […]), 15.9 mg/L phenol red, 10% dialyzed FBS (Invitrogen, 26400-044) and 25 mM HEPES-KOH, pH 7.4) and OCR was measured. Each measurement was performed over 4 min after a 2-min mix and a 2-min wait period. Basal measurements were collected 8 times and 4 measurements were collected after injection of each drug: antimycin A (final concentration 1 μM) or piericidin (final concentration 1 μM). Three measurements before and after addition of the drug were averaged and normalized by the cell number.

[1] = Enzymatic assay of NAD(P)H oxidase activity, NADH as substrate (absorbance at 340); format: biochemical
Procedure: FIGS. 1A-1E illustrate the biochemical properties of LbNOX with a C-terminal FLAG tag and a cleavable N-terminal hexahistidine (Hisx6) tag produced by overexpression in E. coli. Purified LbNOX-FLAG has a yellow color and a UV-visible absorption spectrum (λmax=371 and 444 nm) similar to other FAD-containing enzymes, which can be reduced upon the addition of sodium dithionite (FIG. 1B). (FIG. 1A) Reaction catalyzed by LbNOX. (FIG. 1B) UV-visible spectrum of purified LbNOX. Protein (82.8 μM FAD active sites) in 50 mM NaPi pH 7.5, 150 mM NaCl after purification in oxidized form (solid line) and after addition of excess of sodium dithionite, reduced form (dashed line). Inset: SDS-PAGE of purified LbNOX. (FIG. 1C) Simultaneous measurement of NADH and oxygen consumption by LbNOX as assayed in 50 mM NaPi pH 7.5, 150 mM NaCl at 28° C. NADH (500 μM) and LbNOX (1.8 μg) were added as indicated by arrows. (FIG. 1D) Michaelis-Menten analysis of the NAD(P)H oxidase activity of recombinant LbNOX. Inset: values for Vmax and KM for NADH represent the mean±S.D. (error bars) from four independent experiments. (FIG. 1E) The crystal structure of LbNOX. The FAD in stick representation and bound oxygen in red spheres. Inset: The substrate selectivity loops of LbNOX (containing Asp177, Ala178, and Pro184) and glutathione reductase—NADPH complex (containing Arg198 and Arg204) (PDB ID 1GET). Backbone atoms of NAD(P)H binding domains of each protein (residues 147-247 of LbNOX and 167-268 of glutathione reductase) were superimposed using the least square algorithm of COOT. Note that Arg198 and Arg204 of glutathione reductase, which tightly bind the phosphate moiety of NADPH, are replaced in LbNOX with Ala178 and Pro184, respectively. Negatively charged side chain of Asp177 in LbNOX replaces the neutral Val197 of glutathione reductase.
Recombinant LbNOX activity was monitored by following the decrease of the absorbance of NAD(P)H at […] using CARY® 100 spectrophotometer (Agilent, CA). A typical reaction mixture contained 2 μM FAD in 0.5 ml of the assay buffer (50 mM Na2HPO4, pH 7.5, 150 mM NaCl) and was incubated for 4 min at 37° C. before NAD(P)H (2-600 μM) and enzyme (0.08-6.8 μg) were added. Extinction coefficient (ε340=6.2 mM^−1 cm^−1) was used to calculate NAD(P)H oxidase activity. Simultaneous monitoring of oxygen consumption and NADH fluorescence was performed using a custom-built fluorimeter. In our setup the REDEYE™ oxygen patch (OceanOptics) was installed in a cuvette and the optical probe was connected to a fluorimeter. Oxygen causes quenching of the REDEYE™ patch fluorescence which allows to monitor the partial pressure of oxygen. In our experiments 0.5 ml of the assay buffer was preincubated at 28° C. before NADH (40-1500 μM) and LbNOX (0.1-2 μg) were added.

Row | Molecule | increase in oxygen consumption: resistance to antimycin (HeLa cells) | increase in oxygen consumption: resistance to piericidin (HeLa cells; 1 μM piericidin (complex I inhibitor)) | increase in oxygen consumption of HeLa cells (HeLa cells) | substrate selectivity NADH vs NADPH [1] | specific activity ([1]; after enterokinase cleavage of N-terminal Hisx6 tag) | specific activity ([1]; fully reconstituted LbNOX (holoLbNOX), peak from Source 15Q, N-terminal Hisx6 tag present) | Km ([1]; recombinant enzyme, read-out: apparent KM for NADH) | kcat with NADH [1]
1 | B1 | resistant | resistant | 1.6 fold | selectively oxidizes NADH over NADPH | ~750 µmol/min/mg | ~550 µmol/min/mg | 69 ± 3 µM | 
2 | B2 | resistant |  | 1.7 fold |  |  |  |  | 3.2 ± 0.2 s⁻¹
